In publication PMC6850040 (Iubmb Life, 2019):
Where a chain is given by its changes, count along the chain named.

Assays:
OxDC [1] = target: OxDC (Bacillus subtilis, UniProt O34714); experiment: oxalate decarboxylase activity, Michaelis-Menten fit; format: biochemical; settings: pH 4.2; 140 mM NaCl; no o-phenylenediamine; potassium oxalate 0.1-250 mM
OxDC [2] = target: T1, OxDC (Bacillus subtilis, UniProt O34714, S161D/E162S/N163S/S164N); experiment: turbidity at […] nm, protection from aggregation; format: binding; settings: 50 mM sodium glyoxylate; 16 mM Tris-HCl pH 7.2, 140 mM NaCl, 25 C; substrate analogue, active site (indirect evidence)
T1 construct: synthetic cDNA (GeneScript) in pET24a(+), thrombin site and C-terminal 6xHis; expressed in E. coli; two-step purification, untagged enzyme used; homohexamer 264 kDa, Mn-dependent

[3] = target: the molecule itself; experiment: dynamic light scattering; 0.5 mg/mL enzyme, 25°C, 52 mM sodium acetate pH 4.2, 140 mM NaCl; self-association (hexamer)
purified protein = substrate: O=C(O)C(=O)O; experiment: purified protein; settings: pH 4.2, 140 mM NaCl, potassium oxalate 10-200 mM

Chain of OxDC (Bacillus subtilis, UniProt O34714) (O34714 whole entry): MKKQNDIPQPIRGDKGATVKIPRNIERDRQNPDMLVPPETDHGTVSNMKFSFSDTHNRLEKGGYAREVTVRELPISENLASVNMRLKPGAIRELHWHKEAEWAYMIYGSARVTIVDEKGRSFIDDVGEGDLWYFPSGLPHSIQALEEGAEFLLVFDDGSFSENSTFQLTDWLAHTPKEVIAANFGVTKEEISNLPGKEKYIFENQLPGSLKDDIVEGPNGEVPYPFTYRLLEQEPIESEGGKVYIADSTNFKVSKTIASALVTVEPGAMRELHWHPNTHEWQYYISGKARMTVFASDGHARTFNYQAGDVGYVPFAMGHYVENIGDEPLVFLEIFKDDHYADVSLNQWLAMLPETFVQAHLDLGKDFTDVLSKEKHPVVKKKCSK

## O=C(O)C(=O)O [oxalate]
OxDC [1]
  Km: 8 ± 0.8 mM

## O=CC(=O)O [sodium glyoxylate]
OxDC [2]
  turbidity at 600 nm, protection from aggregation: We found that NaGlyox prevents aggregation

B1: OxDC‐DSSN (OxDC bearing the Ser161Asp, Glu162Ser, Asn163Ser, Ser164Asn mutations) (enzyme, Bacillus subtilis)
chain: MKKQNDIPQPIRGDKGATVKIPRNIERDRQNPDMLVPPETDHGTVSNMKFSFSDTHNRLEKGGYAREVTVRELPISENLASVNMRLKPGAIRELHWHKEAEWAYMIYGSARVTIVDEKGRSFIDDVGEGDLWYFPSGLPHSIQALEEGAEFLLVFDDGSFDSSNTFQLTDWLAHTPKEVIAANFGVTKEEISNLPGKEKYIFENQLPGSLKDDIVEGPNGEVPYPFTYRLLEQEPIESEGGKVYIADSTNFKVSKTIASALVTVEPGAMRELHWHPNTHEWQYYISGKARMTVFASDGHARTFNYQAGDVGYVPFAMGHYVENIGDEPLVFLEIFKDDHYADVSLNQWLAMLPETFVQAHLDLGKDFTDVLSKEKHPVVKKKCSK
notes: Oxalate decarboxylase (OxDC) of Bacillus subtilis with four substitutions in the lid; made by site-directed mutagenesis of pET24a-OxDC (thrombin cleavage site and 6xHis tag at the C-terminus); The PDB entries are of the wild-type parent; source: two-step purification giving untagged protein; not shown: His6, C-terminal, cleaved
[3]
  stoichiometry N: 6
Purified protein
  Km: 0.30 ± 0.07 mM
  Vmax: 2 µmol/min/mg
  kcat: 1.4 s⁻¹

B2: Oxalate decarboxylase (OxDC) from Bacillus subtilis, wild type (enzyme)
chain: B1 chain with D161S, S162E, S163N, N164S
notes: Oxalate decarboxylase (OxDC) of Bacillus subtilis; cDNA with a thrombin cleavage site and a 6xHis tag at the C-terminus in pET24a(+); homohexamer of 264 kDa; Residues of the thrombin site may remain at the C-terminus after cleavage; Purification details are in the Supporting Information; also called wild‐type OxDC; source: two-step purification giving untagged protein; not shown: His6, …
[3]
  stoichiometry N: 6
